The source of these data is US9783615B2, “Combination treatment of cancer” (UNIVERSITÉ DE LIÈGE, priority 2012, dated 2017).

Substitutions are numbered along the chain they refer to. “Also recorded” adds a separate entry of the source.

Assay [1] has as its system MDA-MB231 cells expressing MT4-MMP. The experiment in a line: In vitro 3D Matrigel proliferation assay with DNA quantification. Format: cell-based, human. To be noted: 7 days; for effect on MT4-MMP-mediated mitogenic effect (cell proliferation, DNA content): 3D Matrigel matrix, signaling pathway inhibitors added to the culture medium. Here is the method:
The medium was changed every three days.
Inhibition of MT4-MMP-dependent mitogenic effect of cancer cells was performed in 3D culture matrix. […] The medium was changed every three days.

The subject of assay [2] is MDA-MB 231 control (CTR) cells. To be noted: 3D Matrigel matrix, 7 days.
Method: Matrigel® mixed with an equal volume of culture medium was coated onto 24-well plates (300 μl/plate). Cells (104) suspended in 250 μl of medium were mixed with the same volume of cold Matrigel® and seeded on the previously coated Matrigel® layer. In some assays, growth factor-free Matrigel® was used (BD, Bioscience). For signaling pathway inhibition in the 3D culture model, cells were incubated in Matrigel® matrix and 24 h later several inhibitors were added to the culture medium at the indicated concentrations:
SB203580, Genistein, U0126, Wortmannin, PP2, SP600125, AG538 (Sigma), PD0332991 (Axon Medchem, Groningen, The Nederlands), MDL-12, GF109203x, AG1478 (Calbiochem, Gibbstown, N.J.). The medium was changed every three days. After 7 days, cells were recovered from 3D cultures upon treatment with 500 μl of Dispase (BD, Bioscience) for 2 h at 37° C. After two washes in PBS, cell pellet was diluted in PBS (1 ml) and sonicated.
The target in assay [3] is T1, active wild type recombinant MT4-MMP (Homo sapiens, UniProt Q9ULZ9).
T1 construct: made in house
T1 sequence (Q9ULZ9 126-565): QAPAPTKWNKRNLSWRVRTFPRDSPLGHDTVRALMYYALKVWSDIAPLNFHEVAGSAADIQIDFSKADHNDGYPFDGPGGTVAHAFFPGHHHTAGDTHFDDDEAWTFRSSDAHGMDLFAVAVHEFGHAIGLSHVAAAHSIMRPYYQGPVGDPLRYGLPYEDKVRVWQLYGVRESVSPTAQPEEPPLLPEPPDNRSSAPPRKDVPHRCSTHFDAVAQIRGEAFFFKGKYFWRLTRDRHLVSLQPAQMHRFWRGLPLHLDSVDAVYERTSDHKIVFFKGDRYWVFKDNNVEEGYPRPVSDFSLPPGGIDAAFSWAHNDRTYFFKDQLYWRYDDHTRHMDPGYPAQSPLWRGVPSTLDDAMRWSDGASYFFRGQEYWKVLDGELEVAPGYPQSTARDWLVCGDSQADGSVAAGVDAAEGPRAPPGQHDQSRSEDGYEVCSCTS
The experiment in a line: Antibody specificity by Western blot. Format: binding. To be noted: scFV 1 μg/ml. The procedure: (§1) In detail, antibody specificity was assessed by Western blot. Recombinant MT4-MMP (1 μg) was incubated with purified scFV clones (1 μg/ml) that contain a myc tag. Membranes were first incubated with a monoclonal mouse anti-myc antibody (clone 9E10, Sigma M5546) (1/1000) and then with HRP conjugated anti-mouse antibody (FIG. 14 A).
(A western blot detects proteins with antibodies after separation by electrophoresis.)

Assay [4] addresses T2, MT4-MMP inactivated by mutation in its catalytic site (E249A) (Homo sapiens, UniProt Q9ULZ9, E249A).
T2 sequence (Q9ULZ9 126-565 E249A): T1 sequence (Q9ULZ9 126-565) with E124A
The assay is described as follows: Antibody specificity by Western blot. The format is binding. To be noted: scFV 1 μg/ml. The procedure: as §1

Assay [5] concerns the target T3, recombinant catalytic domain of MT4-MMP (MT4CAT) (Homo sapiens, UniProt Q9ULZ9).
T3 construct: Enzymatic activity of the recombinant catalytic domain of MT4-MMP (MT4CAT) was monitored
T3 sequence (Q9ULZ9 126-295 limits assumed): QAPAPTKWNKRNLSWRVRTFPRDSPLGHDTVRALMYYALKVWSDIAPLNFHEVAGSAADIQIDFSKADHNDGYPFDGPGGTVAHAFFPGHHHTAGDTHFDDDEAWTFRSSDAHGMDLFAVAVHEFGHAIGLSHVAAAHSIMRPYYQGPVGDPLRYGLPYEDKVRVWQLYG
The experiment in a line: Inhibition of MT4-MMP enzymatic activity: cleavage of quenched fluorogenic peptide substrate (TACE substrate M-2255). The format is biochemical. To be noted: scFV clones at 14 nM; substrate 30 μM. The procedure: Inhibition of enzymatic activity of MT4-MMP was quantified by measuring the cleavage of quenched fluorogenic peptide substrate by the recombinant catalytic domain of MT4-MMP (MT4-CAT) in the presence or absence of MT4-MMP blocking antibodies (scFV). MT4-CAT (4.5 μM) was pre-incubated with MT4-MMP blocking antibodies (14 nM) for 30 min at 4° C. in buffer containing (50 mM Tris-HCl (pH 7.4); 5 mM CaCl2; ZnCl2 1 μM; 0.005%, Brij, 2% DMSO) before incubation with 30 μM of the fluorogenic substrate (pro-tumor necrosis factor-α converting enzyme (TACE) fluorogenic peptide substrate; Mca-(endo-1a-Dap(Dnp))-TNF-α (−5 to +6) amide (human), M-2255, Bachem AG, Switzerland).
Neutralizing capacity of antibodies. The enzymatic activity of the recombinant catalytic domain of MT4-MMP (MT4CAT) was monitored by the cleavage of quenched fluorogenic peptide substrate pro-tumor necrosis factor-α converting enzyme (TACE) (M-2255, BACHEM) and using Luminescence spectrometer (SPECTRA MAX; GIMINI). […] The cleavage of quenched fluorogenic peptide was monitored by measuring relative fluorescence units (RFU) during the incubation time (seconds) in the absence of inhibitor (MTCAT+No inhibitor) or in the presence of BB94 (20 μM) or of the scFV clones (14 nM). […]

For a further assay, the system named is MMP2. The assay is described as follows: Antibody specificity by Western blot. Format: binding.
The next assay deals with T4, MT3-MMP (MMP16) (Homo sapiens, UniProt P51512).
T4 construct: but not to MT1-MMP, MT3-MMP and MMP 2 catalytic domains
T4 sequence (P51512 120-291 limits assumed, species assumed): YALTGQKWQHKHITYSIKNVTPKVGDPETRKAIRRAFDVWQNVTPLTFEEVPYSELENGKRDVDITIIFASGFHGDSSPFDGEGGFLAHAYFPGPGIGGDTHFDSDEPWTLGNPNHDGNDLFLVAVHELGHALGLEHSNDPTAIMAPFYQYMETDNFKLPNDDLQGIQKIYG
The assay is described as follows: Antibody specificity by Western blot. Format: binding.

Assay [6] addresses T5, recombinant wild-type MT4-MMP (Homo sapiens, UniProt Q9ULZ9).
T5 construct: made in house
T5 sequence (Q9ULZ9 126-565): T1 sequence (Q9ULZ9 126-565)
The assay is described as follows: Antibody specificity by ELISA. The format is binding. To be noted: 3 μg protein. The source says: (§2) The specificity of K4H7 antibody evaluated by ELISA. […] BSA (column 2) and the absence of protein (column 1: blank) were used as control.

Assay [7] deals with T6, inactive mutated form of MT4-MMP (E249A) (Homo sapiens, UniProt Q9ULZ9, E249A).
T6 sequence (Q9ULZ9 126-565 E249A): T1 sequence (Q9ULZ9 126-565) with E124A
The assay is described as follows: Antibody specificity by ELISA. Format: binding.
Text: as §2
In general terms: An ELISA detects its analyte on a solid surface through an enzyme-linked reagent.

Assay [8] deals with T7, recombinant MT4-CAT protein (Homo sapiens, UniProt Q9ULZ9).
T7 construct: Enzymatic activity of the recombinant catalytic domain of MT4-MMP (MT4CAT) was monitored
T7 sequence (Q9ULZ9 126-295 limits assumed): T3 sequence (Q9ULZ9 126-295 limits assumed)
The experiment in a line: Antibody affinity on immobilized protein in 96 well-plates (absorbance at 450 nm). Format: binding. To be noted: 0-3 μg of MT4-CAT per well. Here is the method: For determining antibody affinity recombinant MT4-CAT protein and BSA (background) was immobilized on 96 well-plates [0-3 μg of MT4-CAT in 15 mM Na-bicarbonate (pH 9.6)/well] for 18 h, at +4° C. Non-specific blockage was carried out by incubation of 3% (w/v) BSA/PBS, 0.01% (v/v) Tween-20, for 1 h, at +4° C. The detection of the bound antibody was carried out with 1:2000 diluted mouse anti-myc antibody (clone 9E10, Sigma M5546) incubated for 1 h, at room temperature, followed by 15 min incubation with HRP-conjugated anti-mouse antibody. After adding TMB substrate, the absorbance was measured at 450 nm Multiskan FC (Thermo Scientific, Rockford, USA).

The next assay concerns the target T8, MT1-MMP (MMP14) (Homo sapiens, UniProt P50281).
T8 construct: but not to MT1-MMP, MT3-MMP and MMP 2 catalytic domains
The assay is described as follows: Antibody specificity by Western blot. The format is binding.

`O=c1c(-c2ccc(O)cc2)coc2cc(O)cc(O)c12` [genistein]: the “effect on MT4-MMP-mediated mitogenic effect (cell proliferation, DNA content)” value (“effect … (cell proliferation, DNA content)” below) in assay [1] was “strongly inhibited”.
With `N#CC(=C(/N)Sc1ccccc1N)/C(C#N)=C(\N)Sc1ccccc1N` [U0126], in assay [2], the “effect on proliferative rate in control cells” value was “without affecting the proliferative rate”. For the same molecule, in [1], the “effect … (cell proliferation, DNA content)” value was “markedly inverted the proliferative phenotype”.
As to `CC(=O)c1c(C)c2cnc(Nc3ccc(N4CCNCC4)cn3)nc2n(C2CCCC2)c1=O` [PD0332991], in assay [1], the “effect … (cell proliferation, DNA content)” value is “inhibited”.
`N#C/C(=C\c1ccc(O)c(O)c1)C(=O)c1ccc(O)c(O)c1` [AG538]: the “effect … (cell proliferation, DNA content)” value in assay [1] was “No change”.
As to `CC(C)(C)n1nc(-c2ccc(Cl)cc2)c2c(N)ncnc21` [PP2, 4-amino-5-(4-chlorophenyl)-7-(t-butyl)pyrazol[3,4-d]pyrimidine], in [1], the “effect … (cell proliferation, DNA content)” value was “No change”.
On the same count and under the same terms, the result for `COc1cc2ncnc(Nc3cccc(Cl)c3)c2cc1OC` [AG1478] reads “significantly reduced”.
For the molecule `C#Cc1cccc(Nc2ncnc3cc(OCCOC)c(OCCOC)cc23)c1` [erlotinib], in assay [1] (single treatment 1 μM, 3D Matrigel), the “inhibition of proliferation of cancer cells (DNA content)” value was “partially inhibited; also recorded: reduced cell proliferation”.

B1: K4H7: human scFv antibody that specifically binds and neutralizes MT4-MMP; VH SEQ ID NO: 26, VL SEQ ID NO: 27, complete scFv SEQ ID NO: 28 (protein)
scFv: QVQLVQSGGGLVKPGRSLRLSCTASGFTFGDYAMSWFRQAPGKGLEWVGFIRSKAYGGTTEYAASVKGRFTISRDDSKSIAYLQMNSLKTEDTAVYYCTRGSSGWFLNWFDPWGQGTLVTVSSLEGGGGSGGGGSGGGGSELETTLTQSPATLSLSPGERATLSCRASQSISSSYLAWYQHKPGQAPRLLIYGASRRATGIPDRFSGSGSGTDFSLTISRLEPEDFAVYYCLHYGSSKWTFGQGTKVEIKR
Take B1: the “recognition of wild type recombinant MT4-MMP” value in assay [3] is reported as “recognized specifically”. Moreover, the “recognition of MT4-MMP E249A mutant” value in [4] is given as “recognized specifically”. The “inhibition of MT4-MMP enzymatic activity (neutralizing capacity)” value in assay [5] was “able to inhibit; also recorded: inhibited completely”. Also, the “recognition of MMP2” value in the assay with MMP2 is “do not recognize”. For the same molecule, in assay [1] (single treatment 20 μg/ml, 3D Matrigel), the “reduction of cell proliferation (DNA content)” value is “reduced cell proliferation”. For the same molecule, the “recognition of MT3-MMP (MMP16)” value in the assay with MT3-MMP (MMP16) is “do not recognize”. Moreover, the “binding to wild-type MT4-MMP” value in assay [6] is “binds specifically”. Further, the “binding to inactive MT4-MMP (E249A)” value in assay [7] is “binds specifically”. In addition, the “affinity / capacity to bind recombinant MT4-MMP, compared among the three scFV clones” value in assay [8] was “highest capacity to bind; also recorded: highest affinity”. Also, the “recognition of MT1-MMP (MMP14)” value with MT1-MMP (MMP14) is “do not recognize”.
